Literature values in paper PMC6325607.

Tested on: Cys149

Cytosolic glyceraldehyde-3-phosphate dehydrogenase (GAPDH) (Arabidopsis thaliana)
pKa: 5.65
